The nanobody polyreactivity screen of Harvey et al. (2022)

Assay: yeast display, Sf9 membrane polyspecificity reagent, FACS + sequencing; frameworks hold sequencing errors
Procedure, shortened: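 Polyreactivity labels are assigned by the sorting gate from which each nanobody was recovered. The gates were low and high (top ~1%), set on anti-HA fluorescence for expression and streptavidin fluorescence for reagent binding. Before sorting, galactose-induced (36–48 hours) yeast display cells were stained for 1 hour at 4 °C with 10% biotinylated, detergent-solubilized Sf9 membrane reagent.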
In the case of “QVQLVESGGGLVQAGGSLRLSCAASGSIFYYYAMGWYRPAPGKEWELVAAISSTVSTNYADSVKGRFTISRDNAKNTVYLQMNSLKPEDTAVYYCAAAQRVNHVWYDYWGQGTQVTVSS”, the “polyreactivity (PSR sort gate)” value was “low polyreactivity”. In the case of “QVQLVESGGGLVQAGGSLRLSCAASGSIFYYYAMGWYRQAPGKEREFVATIRRSGASTYYADSVKGRFTISRDNAKNTVYLQMNSLKPEDTAVYYCNAASARRPIYEAARWSKYDYWGQGTQVTVSS”, the “polyreactivity (PSR sort gate)” value was “low polyreactivity”. For “QVQLVESGGGLVQAGGSLRLSCAASGSIFYYYAMGWYRQAPGKERELVAAINGGDTYYADSVKGRFTISRDNAKNTVYLQMNSLKPEDTAVYYCAAEGVTVEWDYDYWGQGTQVTVSS”, the “polyreactivity (PSR sort gate)” value was “low polyreactivity”. In the case of “QVQLVESGGGLVQAGGSLRLSCAASGSIFYYYAMGWYRQAPGKERELVAAISSTGGSTYYADSVKGRFTISRDNAKNTVYLQMNSLKPEDTAVYYCAAYHYGSNVFYFDYWGQGTQVTVSS”, the “polyreactivity (PSR sort gate)” value was “low polyreactivity”. With “QVQLVESGGGLVQAGGSLRLSCAASGSIFYYYAMGWYRQAPGKERELVAANDFGGGSTYYADSVKGRFTISRDNAKNTVYLQMNSLKPEDTAVYYCAARTFKDAGSAYGSWGQGTQVTVSS” the “polyreactivity (PSR sort gate)” value was “high polyreactivity”. For “QVQLVESGGGLVQAGGSLRLSCAASGSIFYYYAMGWYRQAPGKERELVASITSGARTNYADSVKGRFTISRDNAKNTVYLQMNILKPEDTAVFYCAADIKWSIRRAYDYWGQGTQVTVSS”, the “polyreactivity (PSR sort gate)” value was “high polyreactivity”. With “QVQLVESGGGLVQAGGSLRLSCAASGSIFYYYAMGWYRQAPGKERELVATITSGGTTYYADSVKGRFTISRDNAKNTVYLQMISLKPEDTAVYYCAKRVKYHLYWGQGTQVTVSS” the “polyreactivity (PSR sort gate)” value was “low polyreactivity”. For “QVQLVESGGGLVQAGGSLRLSCAASGSIFYYYVMGWYRQAPGKERELVAAISSGGGTNYADSVKGRFTISRDNAKNTVYLQMNSLKPEDTAVYYCANASAYGLANDYDYWGQGTQVTVSS”, the “polyreactivity (PSR sort gate)” value was “low polyreactivity”. With “QVQLVESGGGLVQAGGSLRLSCAASGSIGTYVMGWYRQAPGKERELVAAISLSGGSTYYADSVKGRFTISRDNAKNTVYLQMNSLKPEDTAVYYCNAVKATRNTGSDYWGQGTQVTVSS” the “polyreactivity (PSR sort gate)” value was “low polyreactivity”. For “QVQLVESGGGLVQAGGSLRLSCAASGSIGYYAMGWYRQAPGKERELVAVISRSGTGTSYADSVKGRFTISRDNAKNTVYSQMTSLKPEDTAVYYCNAETYTYRYENDYWGQGTQVTVSS”, the “polyreactivity (PSR sort gate)” value was “high polyreactivity”. For “QVQLVESGGGLVQAGGSLRLSCAASGSIIARYAMGWYRQAPGKERELVAANTWSATSTYYADSVKGRFTISRDNAKNTVYLQMNSLKPEDTAVYYCNAGASYFLVISQSRGDYWGQGTQVTVSS”, the “polyreactivity (PSR sort gate)” value was “low polyreactivity”. In the case of “QVQLVESGGGLVQAGGSLRLSCAASGSIIDINALGWYRQAPRKERDLVAAISLSAGSTYYADSVKGRFSISRDNAKNTVYLQMNSLKPEDTAVYYGAAERGGRGTLRNRYDYWGQGTQVTVSS”, the “polyreactivity (PSR sort gate)” value was “low polyreactivity”. In the case of “QVQLVESGGGLVQAGGSLRLSCAASGSIIGDNAMGWSRQAPGKERELVADITNGGSTNYADSVKGRFTISRDNAKNTVYLQMNSLKPEDTAVYYCNKDIVWYGNYGYWGQGTQVTVSS”, the “polyreactivity (PSR sort gate)” value was “low polyreactivity”. For “QVQLVESGGGLVQAGGSLRLSCAASGSIIGGYVMGWYRQAPGKERELVAAITSRVGSTYYADSVKGRFTISRDNAKNTVYLQMNSLKPEDTAVYYCAVVFAKRAWSRYDYWGQGTQVTVSS”, the “polyreactivity (PSR sort gate)” value was “high polyreactivity”. In the case of “QVQLVESGGGLVQAGGSLRLSCAASGSIIGRYAMAWYRPAPGQVRELVAAISTGGGRTYYADSVKGRFTISRDNAKNTVYLQMNSLKAEDTAVYYCNAGPYKGWGRMDYWGQGTQVTVSS”, the “polyreactivity (PSR sort gate)” value was “high polyreactivity”. For “QVQLVESGGGLVQAGGSLRLSCAASGSIIGRYAMGWYRQAPGKERELVAAISTGGGRTYYADSVKGRFTISRDNAKNTVYLQLNSLKPEDTAVYYCNAGPYKGWGRMDYWGQGTQVTVSS”, the “polyreactivity (PSR sort gate)” value was “high polyreactivity”. With “QVQLVESGGGLVQAGGSLRLSCAASGSIIGTNVMGWYRQPPGKERELVPSISYRDGTTYYADSVKGRFTISRDNAKNTVYLQMNSLKPEDTAVYYFAVANYYSYYWGQGTQVTVSS” the “polyreactivity (PSR sort gate)” value was “low polyreactivity”. In the case of “QVQLVESGGGLVQAGGSLRLSCAASGSIIGTYAMGWYRQAPGKERELVAAISSSSTRTYYADSVKGRFTISRDTAKNTVYLQMNSLKPEDTAVYYCAATFTAVRGKYGYWGQGTQVTVSS”, the “polyreactivity (PSR sort gate)” value was “high polyreactivity”. For “QVQLVESGGGLVQAGGSLRLSCAASGSIIKPYAMGWYRQAPGKERDLVAAIRSSGGRTNYADSVKGRFTISRDNAKNTVYLQMNSLKPEDTAVYYCAALVRVTGTYYTKYDFWGQGNQVTVSS”, the “polyreactivity (PSR sort gate)” value was “high polyreactivity”. With “QVQLVESGGGLVQAGGSLRLSCAASGSIIPPNAMGWYRQAPGKERELVAGISSGGSTTYADSVKGRFTISRDNAKNTVYLQMNSLKPEDTAVYYCAADVPYGASIISYDYWGQGTQVTVSS” the “polyreactivity (PSR sort gate)” value was “low polyreactivity”. With “QVQLVESGGGLVQAGGSLRLSCAASGSIIQQYDKGWYRQAPGKHREFVAANSSSGGSTYYADSVKGRFTISRDNAKNTVYLQMNSLKPEDTAVYYCAVDTKGYTYVDYLHGSGEFGYWGQGTQVTVSS” the “polyreactivity (PSR sort gate)” value was “low polyreactivity”. With “QVQLVESGGGLVQAGGSLRLSCAASGSIIQVYAMGWYRQATGKERELVASITRTGGSTYYADSVKGRFTISRDNAKNTVYLLMNSLKPEDTAVYYCAAEKRYYYYVKYWKSDYWGQGTQVTVSS” the “polyreactivity (PSR sort gate)” value was “low polyreactivity”. With “QVQLVESGGGLVQAGGSLRLSCAASGSIIRSYTMGWYRQAPGKERELVASISRTGGSTHYADSVKGRFTISRDNAKNTVYLQMNSLKPEDTAVYYCNADTRRNRLMDYWGQGTQVTVSS” the “polyreactivity (PSR sort gate)” value was “high polyreactivity”. For “QVQLVESGGGLVQAGGSLRLSCAASGSIISAYAMGWYRQAPGKVREFVASITWSGGSTYYADSVKGRFTISRDNAKNTVYLQMNSLKPEDTAVYDCAAVYVTWYNNYEYWGQGTQVTVSS”, the “polyreactivity (PSR sort gate)” value was “high polyreactivity”. For “QVQLVESGGGLVQAGGSLRLSCAASGSIISNYVMGWYRQAPGKERELDAAITRRGGRTYYADSVKGRFTISRDNAKNTVYLQMNSLKPEDTAVYYCAAEGYVYTFWDSTDFDYWGQGTQVTVSS”, the “polyreactivity (PSR sort gate)” value was “high polyreactivity”. In the case of “QVQLVESGGGLVQAGGSLRLSCAASGSIISYYAMGWYRQAPGKERELVAVINSGSTNYADSVKGRFTLSRDNSKNTVYLQMHSLNPEDTAVYYCAAYSLLYLLEQYTTAPYDYWGQGTQVTVSS”, the “polyreactivity (PSR sort gate)” value was “low polyreactivity”. With “QVQLVESGGGLVQAGGSLRLSCAASGSIITPYTMGWDRQAPGKERELVAAISWSGATTHYADSVKGRFTISRDNAKNTVYLQMNSLKPEDTAVYYCAARWGLRSSRYYYWGQGTQVTVSS” the “polyreactivity (PSR sort gate)” value was “high polyreactivity”. With “QVQLVESGGGLVQAGGSLRLSCAASGSIITPYTMGWYRQAPGKERELVAAITGSAGSTYYADSVKGRFTISRDNAKNTVYLQMNSLKPEDTAVYYCAAAVWGVYQWYYYWGQGTQVTVSS” the “polyreactivity (PSR sort gate)” value was “high polyreactivity”. In the case of “QVQLVESGGGLVQAGGSLRLSCAASGSIITWYTMGWYRQAPGKERELVAAISWSGGRTYYADSVKGRFTISRDNAKNTVYLQMNSLKPEDTAVYYCAASAYGRPPFDYWGQGTQVTVSS”, the “polyreactivity (PSR sort gate)” value was “high polyreactivity”. For “QVQLVESGGGLVQAGGSLRLSCAASGSIIVGYAMGWYRQAPGTERELVAAISWSGGRTYYADSVKGRFTISRDNAKNSVYLQMNSLKPEDTAVYYCATVTKGSLRYNYNYWGQGTQVTVSS”, the “polyreactivity (PSR sort gate)” value was “high polyreactivity”. For “QVQLVESGGGLVQAGGSLRLSCAASGSIIVPYAMGWYRQAPGKERELVAAISSRGGRTYYADSVKGRFTISRDNAKNTVYLQMNSLKPEDTAVYYCNKTAGSHIPRLEYWGQGTQVTVSS”, the “polyreactivity (PSR sort gate)” value was “low polyreactivity”. In the case of “QVQLVESGGGLVQAGGSLRLSCAASGSIIVRYAMGWYRQAPGKERELVAAITSRGGSTYYAVSVKGRFTISRDNAKNTVYLQMNSLKPEDTAVYYCAAYGDQRSTPAIDKYGGQGTQVTVSS”, the “polyreactivity (PSR sort gate)” value was “low polyreactivity”. For “QVQLVESGGGLVQAGGSLRLSCAASGSIIVRYAMGWYRQAPGKERELVASISKRGGSTYYADSVKGRFTISRDNAKNTVYLQMNSLKPEDTAVYYCAARVVTRVRGVGYNYWGQGTQVTVSS”, the “polyreactivity (PSR sort gate)” value was “high polyreactivity”. With “QVQLVESGGGLVQAGGSLRLSCAASGSIIVVYAMGWSRQAPGKERELVAAISWGIGSTYYADSVKGRFTISRDNAKNTVYLLMNILKPEETAVYYCAAVTDIVLYDYWGQGTQVTVSS” the “polyreactivity (PSR sort gate)” value was “low polyreactivity”. For “QVQLVESGGGLVQAGGSLRLSCAASGSIIWRNAMGWYRQAPGKERELVAAITWSRGSTFYADSVKGRFTISRDNAKNTVYLQMNSLKAEDTAVYYCAAYGGRRFDYWGQGTQVTVSS”, the “polyreactivity (PSR sort gate)” value was “low polyreactivity”. With “QVQLVESGGGLVQAGGSLRLSCAASGSIIYIYAMGWYRQAPGKERELVAAISSGDRTNYADSVKGRFTISRDNAKNTVYLQMNSLKPEDTAVYYCAARGRGSAAKYNYWGQGTQVTVSS” the “polyreactivity (PSR sort gate)” value was “high polyreactivity”. In the case of “QVQLVESGGGLVQAGGSLRLSCAASGSIIYYYAMGWYRQAPGKERELVAAIRGGGSTNYADSVKGRFTISRDNAKNTVYLQMNSLKPEDTAVYYCNADYRNDCGTPLWYAYNYWGQGTQVTVSS”, the “polyreactivity (PSR sort gate)” value was “low polyreactivity”. With “QVQLVESGGGLVQAGGSLRLSCAASGSILAYYARGWYRQAPGQERELVADIRAGGGNTYYADSVKGRFTISRDNAKNTVYLQMNSLKPEDTAVYYCNADWHFWYKWESYDYDYWGQGTQVTVSS” the “polyreactivity (PSR sort gate)” value was “low polyreactivity”. For “QVQLVESGGGLVQAGGSLRLSCAASGSILDGNAMGWYIQAPGKERELVAAISWNGARTYYADSVKGRFTISRDNAKNTVYLQMNSLKPEDTAVFYCAARRGSGKFGKYRGVDYWGQVTQVTVSS”, the “polyreactivity (PSR sort gate)” value was “high polyreactivity”. In the case of “QVQLVESGGGLVQAGGSLRLSCAASGSILDGNNMGWSRQAPGKERELVAAISWRGGSTYYADSVKGRFTISRDNAKNTVYLQMNSLKPEDTAVYYCNTYHPYWGSGFDYWGQGTQVTVSS”, the “polyreactivity (PSR sort gate)” value was “low polyreactivity”. With “QVQLVESGGGLVQAGGSLRLSCAASGSILDTNAMGWYRQAPGKERELVARIDIDGSTNYADSVKGRFTISRDNAKNTVYLQMNSLKPEDTAVYYCAADAERHAPKFTYGTYDYWGQGTQVTVSS” the “polyreactivity (PSR sort gate)” value was “low polyreactivity”.
